As usually defined, the Kd is the concentration at which binding is half-saturated. A lower Kd goes with higher affinity.

Square brackets hold non-standard residues; d marks the D form. Ends that are not written are not given here. pT = C[C@@H](OP(=O)(O)O)[C@H](N)C(=O)O; pS = N[C@@H](COP(=O)(O)O)C(=O)O

The target in this test is T1, human Mad1^CTD (human, UniProt Q9Y6D9 597-718).
T1 chain: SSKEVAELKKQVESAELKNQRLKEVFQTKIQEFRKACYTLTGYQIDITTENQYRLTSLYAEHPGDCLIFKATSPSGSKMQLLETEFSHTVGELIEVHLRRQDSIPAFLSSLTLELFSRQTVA
As to the kind of experiment: ITC. For orientation: In ITC the heat of successive injections is recorded.

CKVQP[pS]P[pT]VHTKEALGFIMNMFQA [human Bub1 CM phospho-peptide pS459-pT461] gave a Kd of 3.1 µM.
Take CKVQPSP[pT]VHTKEALGFIMNMFQA [human Bub1 CM phospho-peptide pT461]: binding was characterised by a dissociation constant (Kd) of 15.7 µM.

(Values after article PMC5268738 (2017).)
